This is an account of results in article PMC8761697, “Dehydrogenase reductase 9 (SDR9C4) and related homologs recognize a broad spectrum of lipid mediator oxylipins as substrates” (The Journal of Biological Chemistry, 2021).

For orientation: Km means the concentration of substrate that gives half-maximal velocity. As usually defined, the Vmax is the top rate of the reaction or transport when substrate is in excess.

Assay in all cases: HPLC of oxidised product, Sf9 microsomes
Common to all, as to format: biochemical, Homo sapiens
Holding throughout (details): apparent Km, NAD+-dependent oxidation, 90 mM potassium phosphate pH 7.3, 40 mM KCl, 37 °C

Substrate in series [1]: CCCCC[C@H](O)/C=C/C=C\CCCCCCCC(=O)O
The source says:
(§1) HPLC of oxidised product, Sf9 microsomes on human RDH16 (SDR9C8)

Substrate in series [2]: CCCCC/C=C\C[C@H](O)/C=C/C=C\C/C=C\CCCC(=O)O
Text: as §1

Substrate in series [3]: CCCCC/C=C\C=C\[C@@H](O)CCCCCCCC(=O)O
Text: as §1

Substrate in series [4]: CCCCC[C@H](O)/C=C/C=C\C/C=C\C/C=C\CCCC(=O)O
Text: as §1

Substrate in series [5]: CC/C=C\C[C@H](O)/C=C/C=C\C=C\C=C\[C@@H](O)[C@@H](O)C/C=C\CCC(=O)O
The source says: (§2) HPLC of oxidised product, Sf9 microsomes on human DHRS9 (SDR9C4)

Substrate in series [6]: CCCCC[C@H](O)/C=C/C=C\C=C\C=C\[C@@H](O)[C@@H](O)CCCC(=O)O
Text: as §2

Substrate in series [7]: CCCCC[C@H](O)/C=C/C=C\CCCCCCCC(=O)O
Text: as §2
This is another data set of the same source.

Substrate in series [8]: CCCCC/C=C\C[C@H](O)/C=C/C=C\C/C=C\CCCC(=O)O
Text: as §2
The source holds these as a separate data set.

Substrate in series [9]: CCCCC/C=C\C=C\[C@@H](O)CCCCCCCC(=O)O
Text: as §2
This is another data set of the same source.

Substrate in series [10]: CCCCC/C=C\C[C@@H](O)/C=C/C=C/C=C\[C@@H](O)CCCC(=O)O
Text: as §2

Substrate in series [11]: CCCCC[C@H](O)/C=C/C=C\C/C=C\C/C=C\CCCC(=O)O
Text: as §2
The source holds these as a separate data set.

Substrate in series [12]: CCCCC[C@H](O)/C=C/C=C\CCCCCCCC(=O)O
The text has this:
(§3) HPLC of oxidised product, Sf9 microsomes on human HSD17B6 (SDR9C6)
The source holds these as a separate data set.

Substrate in series [13]: CCCCC/C=C\C[C@H](O)/C=C/C=C\C/C=C\CCCC(=O)O
Text: as §3
This is another data set of the same source.

Substrate in series [14]: CCCCC/C=C\C=C\[C@@H](O)CCCCCCCC(=O)O
Text: as §3
The source holds these as a separate data set.

Substrate in series [15]: CCCCC[C@H](O)/C=C/C=C\C/C=C\C/C=C\CCCC(=O)O
Text: as §3
The source holds these as a separate data set.

B1: human RDH16 (SDR9C8) (Homo sapiens) (protein)
chain: MWLYLAVFVGLYYLLHWYRERQVLSHLRDKYVFITGCDSGFGKLLARQLDARGLRVLAACLTEKGAEQLRGQTSDRLETVTLDVTKTESVAAAAQWVKECVRDKGLWGLVNNAGISLPTAPNELLTKQDFVTILDVNLLGVIDVTLSLLPLVRRARGRVVNVSSVMGRVSLFGGGYCISKYGVEAFSDSLRRELSYFGVKVAMIEPGYFKTAVTSKERFLKSFLEIWDRSSPEVKEAYGEKFVADYKKSAEQMEQKCTQDLSLVTNCMEHALIACHPRTRYSAGWDAKLLYLPMSYMPTFLVDAIMYWVSPSPAKAL
notes: recombinant, baculovirus-infected Sf9 cell microsomes
B1: the Km stood at 0.83 ± 0.36 µM in [1], 2.01 ± 0.64 µM in [2], 1.76 ± 0.59 µM in series [3] and 1.39 ± 0.56 µM in series [4]. For the same protein, the Vmax in [1] stood at 7.7e-06 µmol/min; in series [2], 2.15e-06 µmol/min; in series [3], 1.67e-05 µmol/min; in [4] it was 2.04e-05 µmol/min.

B2: human DHRS9 (SDR9C4) (Homo sapiens) (protein)
chain: RKGKLKIEDITDKYIFITGCDSGFGNLAARTFDKKGFHVIAACLTESGSTALKAETSERLRTVLLDVTDPENVKRTAQWVKNQVGEKGLWGLINNAGVPGVLAPTDWLTLEDYREPIEVNLFGLISVTLNMLPLVKKAQGRVINVSSVGGRLAIVGGGYTPSKYAVEGFNDSLRRDMKAFGVHVSCIEPGLFKTNLADPVKVIEKKLAIWEQLSPDIKQQYGEGYIEKSLDKLKGNKSYVNMDLSPVVECMDHALTSLFPKTHYAAGKDAKIFWIPLSHMPAALQDFLLLKQKAELANPKAV
notes: as for B1
In the case of B2, the Michaelis-Menten constant (Km) worked out at 1.6 ± 0.5 µM in series [5]; 4.6 ± 2.7 µM in series [6]; 0.46 ± 0.19 µM in series [7]; 0.43 ± 0.16 µM in [8]; 0.57 ± 0.25 µM in [9]; 0.76 ± 0.44 µM in [10]. Moreover, the Km in series [11] amounted to 0.36 ± 0.18 µM. Also, the Vmax in series [5] was found to be 8.5e-05 µmol/min; in series [6], 0.00023 µmol/min; in series [7], 0.00011 µmol/min; in [8] it was 0.00022 µmol/min; in series [9], 2.4e-05 µmol/min; in [10], 0.00017 µmol/min. Further, the maximal velocity (Vmax) in series [11] is 0.00014 µmol/min.

B3: human HSD17B6 (SDR9C6) (Homo sapiens) (protein)
chain: YRERQVVSHLQDKYVFITGCDSGFGNLLARQLDARGLRVLAACLTEKGAEQLRGQTSDRLETVTLDVTKMESIAAATQWVKEHVGDRGLWGLVNNAGILTPITLCEWLNTEDSMNMLKVNLIGVIQVTLSMLPLVRRARGRIVNVSSILGRVAFFVGGYCVSKYGVEAFSDILRREIQHFGVKISIVEPGYFRTGMTNMTQSLERMKQSWKEAPKHIKETYGQQYFDALYNIMKEGLLNCSTNLNLVTDCMEHALTSVHPRTRYSAGWDAKFFFIPLSYLPTSLADYILTRSWPKPAQAV
notes: as for B1
With B3, the Km in series [12] was found to be 0.33 ± 0.24 µM; in series [13] it was 0.87 ± 0.35 µM; in series [14], 0.64 ± 0.28 µM; in series [15], 1.78 ± 0.42 µM. For the same protein, the maximum rate (Vmax) in series [12] worked out at 9e-07 µmol/min; in series [13] it was 7.96e-06 µmol/min; in [14], 4e-07 µmol/min; in series [15], 2.88e-06 µmol/min.
